# In the DeepSol protein solubility set:
# Assay: soluble on expression in E. coli; label from the status in PepcDB or PDB records
row,Sequence,soluble on expression in E. coli
1,MKIGIDAGGTLIKIVQEHDNRRYYRTELTTNIQKVIDWLNNEEIETLKLTGGNAGVIADQIHHSPEIFVEFDASSKGLEILLDEQGHQIEHYIFANVGTGTSFHYFDGKDQQRVGGVGTGGGMIQGLGYLLSNITDYKELTNLAQNGDRDAIDLKVKHIYKDTEPPIPGDLTAANFGNVLHHLDNQFTSANKLASAIGVVGEVITTMAITLAREYKTNHVVYIGSSFNNNQLLREVVENYTVLRGFKPYYIENGAFSGALGALYLLEHHHHHH,soluble
2,MSTDSTNYAAKHESLGKSVQRELQKTQSQLRQVVRKMQSKYNINNKARVAEISLLRQMQSQFSRKYVNKNLGNSNTLAQQGSYTKKDGTTAQAGDLLLAADNLHSRLTDKMLSISHVRENTISPFVLGCLKQITINAYHYLK,not soluble
3,MSNIPKELKYTKSHEWVKIDGDEVTVGITAHAQSLLGDLVYVELPEIGKEFAAGDDSCVVESVKAASDVYAPVDGEVIEINEALVDDPSRVNHTPYKDGWLFKLKISDESQLADLLTADAYAKTLED,not soluble
4,AHHHHHHGSGKLDWIREELEELKKKGLYVTIRVLQSAQGPWVIVNGKKVLNMCSNNYLGLAAHPKIKEAAIRAILDYGVGAGAVRTIAGTMDLHVELEEKLAKFKKREAAILFQSGYNANLGAISALLRKGEDGVFLSEELNHASIIDGMRLSGAPKVIYKHLDMEDLKKKLEENKDKKKKIIVTDGVFSMDGDLAPLPEIVELAEQYDAIVYVDDAHGEGVLGSHGRGIVDHFNLHDKVDFEMGTLSKAFGVIGGYVAGPEEAIEYLKQRARPFLFSSAPNPPDVAAAIAAVEILQKSDDLVKKLWDNTHFLQKGLRDLGYDLGNTKHPITPVMLYDEKLAQEFSRRLFEEYNIFAQAIVYPTVPLGTARIRLEPSAAHTKEDLKLVIDAFEDLGRKTGFLK,soluble
5,MESEKKIAHEIGGVKNDALRFGLHGVKSNIIGSHPLESSYESEKKSKEALKRTVIAHAYGTALPLKMDMDRQILSRFQRPPGPIPSSMLGLEVYTGAVDDFGFEDYLNDPRDSETFKPVDFHHGMEVRLGISKGPIYPSFM,not soluble
6,MRIVVISLFLFSGVFGRASREAEKKQDTVACGELRDEYVRVCTGANTKRREQKDKDFCNAFENICFSIPEGEPDKAKDAEVTGPRTAAISPESAAAVRGETTGSAHKKTNFARFCKEFKNQYLYVCPDPFRFGQKAIVFCPVYSEKCHVPLPDKPVIPQRKSHRKRGPGGAVNQLCRSYQGFAMNYCNNPILTAQSQYRTACDKYWRFCGKFHQQG,not soluble
7,PLGSDSAKLIFINQINDCKDGQKLRFLGCVQSYKNGILRLIDGSSSVTCDVTVVLPDVSIQKHEWLNIVGRKRQDGIVDVLLIRSAVGINLPRYRQMVSERQKCD,soluble
8,MADGVLAVSQEGFNTLQSYNVGEKYTADLWIQQGGLKSTASVVSFSVDKALLDSMNIADGTSYELLPADCYQLTKSSVDIPANERLLKGELTYDPAKIQELSGYDHLKYVLPLRATSSGMPFVSGRSVLLLGFKVSEPIVTIMNAGVEEINLAEVKELPVQIGVPFTNKWEISCRLESRQSVIDAYNTAHGTYFSMLPSDAYVTPETPILHSGVNQVTATYKLKDDILPGNYMLPVQIAEVTSDATIRADKDVYAAYSIIKEGDKLSKTDWKIVSFTTEEASGEGSNNGHAKHLIDGNIETFWHSRWQGGSDPLPYEIIIDMNHRVKIAQIELLPRGRGSNNPIKVVRFEASEDGTNWESIGQFGFTNQDAALKYYVKSSTARYIKLVIPDGVGNGTVAAIRELDVRGTVVNLEHHHHHH,soluble
9,MIKIAIPTSKGGLEDKVHESLVRAETFTLVEVKDGKIERIEVVENPHKNEPYGAGSKVAIFLVNNGVNILLTPMDCPKGKAILEAGGVKIIKVKQGKSVKEVIEAFQSSSSGYSLQ,soluble
10,DPAAADRAEELRIQNLLKQLQQAVTNNDLTIYYQPIMSLQQQSLELYQIYIGLHGDEELISSVTLLEIAKKRELIAQIDRWVVARAIAQIGERQRAGHTTHLLVQIDSASFTDPQLLTMLRTELAAHHVRGEQLWLQTPESKVFTHLYNAQQFLSEISVQGCKMGLEQFGTGLDSFQLLTHFKPAFLKLDRNLTQDINSNHDSLEKIREITSRAQDNGIATFAEFVTDSTSMSALFKVGVDYVQGDFVAPI,not soluble
11,SVRDDLQVVLDTSPPDDTGFSTLERTMLRNILGLHDRRIADVMVHRADIVAIKQDIQLGELLSLFQDAAHSRLVVYNETLDDPVGIVHIRDLVAFMTAKAKVPPATVAKRKKALPAGLDLRAIDLKMPLTETGIIRKLLYVPPSMRAIDLLAQMQAARIHLALVVDEYGGTDGLVSIEDIVEQIVGEID,soluble
12,MVDFYYLPGSSPCRSVIMTAKAVGVELNKKLLNLQAGEHLKPEFLKINPQHTIPTLVDNGFALWESRAIQVYLVEKYGKTDSLYPKCPKKRAVINQRLYFDMGTLYQSFANYYYPQVFAKAPADPEAFKKIEAAFEFLNTFLEGQDYAAGDSLTVADIALVATVSTFEVAKFEISKYANVNRWYENAKKVTPGWEENWAGCLEFKKYFE,soluble
13,MSSTSRIMRPDDANIVGNVHGGTILKMIEEAGCIIGTRHCNTQSGDRCLAALARVERTDFLHPMFIGEVAHVSAEITYTSKHSVEVQVNVLAENIVTGAKKVTNKATLWYVPLSLQNVDKIIEVPPIEYSSPEREEAGKKRYEAQKLERLEDKVRNGEIIMSVSLPEPYTVVCSQSSLIHLVGPSDCTLHGFVHGGVTMKLMDEVAGIVAARHCKTNIVTASVDAINFHRKIKKGCVITVSGRMTFTSNKSMEI,soluble
14,MHFADPREAREFLAAHPEVRSIELFLIDANGVPRGKLLHRDELLAVYESGRPLPSTILGLTINGDDVEETGLVWDVGDADCWTFPLPGSLTLQPWRQSPTGQVQVSMHPELGLPAAAGDPRHVLQRVIHSLQAEGFHPVMAVELEFYLLDRERDSDGRPLPALQMNGQRPRATQVYGVYELEQLQPFLDDLYAACEAQGLPARTAISEYAPGQVEITLQHRFDTLQAIDEGVRYKRLVKGVANRHGLQACFMAKPFADLSGSGLHLHVSLADAAGNNLFASEDPAGTPLLRQAIGGMKACLLESLALFCPNANSFRRFQANSYAPLAPTWGINNRTVSLRVPGGPASSRHIEHRICGADANPYLAAAALLAAVRLGIRERLDPGAPITGNGYAQATQALPSDWLTALRALEGSAWAREALGEDFLKIYLAIKQAEYRAFMGEVGE,not soluble
15,MPEKKPVTAENSVGIDLGIEKFAILSDGIAVENPRFIKRVEKRIKKLQKQISRKKKGSKNYEKQKIRIQKKYRKLRNLRDDFHDKVSTAIAKRYDTIFIEDLNVRGMQRNHHLARSITDVSFYSFKEKLKWKADRYGKNLIEIGRFDPSSKLCSRCGNIKKDLKLSDRVYSCDACGLTIDRDYNASLDIRKIGLVKVGLVPPEFTPVEIATSGLDGIYPYRQMSVGESGRSEASAEELEHHHHHH,not soluble
16,MGHHHHHHSHMKTRQAFYLHTTKLTRIARRLCREILRPWHAARHPYLPINSAAIKAECTARLPEASQSPLVLKQAVRKPLEAVLRYLETHPRPPKPDPVKSVSSVLSSLTPAKVAPVINNGSPTILGKRSYEQHNGVDGNMKKRLLMPSRGLANHGQTRHMGPSRNLLLNGKSYPTKVRLIRGGSLPPVKRRRMNWIDAPDDVFYMATEETRKIRKLLSSSETKRAARRPYKPIALRQSQALPPRPPPPAPVNDEPIVIED,soluble
17,MISAAPYRDRVVHHALYNIIVPIFERTFISDSYANRVGFGSHRALRRFTQFSRSSHYVFQADIRKYFPSIDHKILKHLIYRKIKCPDTLWLINTIIDNSNFQEPVINYFPGDNLLAPLERRCGLPIGNLTSQFFANVYLNNFDHFVKEQLQAFKYIRYVDDFALFSDDKAFLETARVIIEEYLTSLRLKIHPIKSQLFETKHGANFVGFRILPNQIRVRSDNLRLGRKRLRQMLRDYDEGKIDAQHLTQSTQSWVAHLKHGDTWQLRQRIFSSSIFDLAMLILEHHHHHH,soluble
18,MGVSLSKGGNVSLTKEAPGLTAVIVGLGWDIRTTTGTDFDLDASALLLNSGGKVASDAHFIFFNNLKSPDGSVEHTGDNITGEGEGDDEQIKINLATVPADIEKIVFPVSIYDAENRQQSFGQVRNAFIRVVNQAGEAEIARYDLSEDASTETAMVFGELYRHGAEWKFRAIGQGYASGLRGIAQDFGVNV,soluble
19,MVMTVRVIAPDKTVWDAPAEEVILPSTTGQLGILSNHAPLLTALETGVMRVRQDREWVAIALMGGFAEVENNEVTILVNGAERGDTIDLEKAKAEFAAAQAALAQAEQGESKQAKIQATQAFRRARARLQAAGGVVEI,soluble
20,KPGARIGVGMEYQFNDMISLQPSLFFSQKGAKYSSGFDGNIIDADADVKINQLYLELPVNVQFRFNIADNTNLVIATGPYLACGVGGKAKFDGDASVGGIHINGDDKIDTFGDDGLDYNRFDAGWNIGLGVEFGKILVGLDTQLGFCKVMDGDAPHNANIGITLGYKF,not soluble
21,MGSDKIHHHHHHMALRIYGDSISGNCLKVKWTADRLGIAYDWIETNVLTAETRTSAFMALNPAGQVPLAVFPDGRPLAQSNAIIFHLAEGSDLIPGNAFDRAKMLEWMFWEQYSHEPYIAVARFQVLYLGKPVESLEPRLIERGADALARLETQLQRSTFLVGDKLTLADVALVAYTRVAHEGGFDLSLYPAVEAWVGRVEADLGIR,not soluble
22,MVGVMSNSSALSREFVKIEIGGKVIKGNSKVENSGDYFDGHCPQAFHAFSGIDGTVFDLINLKLRVTKHIQDLLENFFKRGEKEVKIEILRRESTKSGSAYSSFKVVYQGCRMHNMLLAHDNDSNLILELSFTPEESVSIEMNIPSDDGKSTEKLGPMTYNLYKEALV,not soluble
23,GHMAKTDRSQPSVLARIAAFRTGLSAEASAADYLERQGYRILARRFKTRCGEIDLVAQRDALVAFVEVKARGNVDDAAYAVTPRQQSRIVAAAEAWLSRHPEHAMSELRFDAILIAPNTAPRHLPGAFDATPGS,soluble
24,MSLKKITGDDVLIPLETPESMHKEYIQNYLNLTRNTGNLMLFAGDQKIEHLNEDFYGKDISKDDADPEHLFKIAENSKIGGFAVQFGLLSRYGRDHKDINYIVKLNSKTNLVDTNQKDPLSRALLDINDILEFKKNSGINIVGVGYTIYLGSEYESEMLSEASKIIYEAHKGGLVVILWIYPRGKAVKDEKDSELISGATGVAACLGADFVKVNYPKSENPAESFKEAVMAAGRTKVVCAGGSSTDIESFLKQLYEQIHISGASGNATGRNIHQKSLSDAVSMCNAIYAITIDGKTVSEALNIYNERKSEGHHHHHH,soluble
25,MPKKNNTKRAPPSVPKPSGPPPRLLQLTSSDGHLLQGDIRALLLSSTLAATIRELGYDKEYCAELKPVPVNNVVGFTLKLLIEWCDKHKEDDPAIALAEKDKKNICIPSWDRHFLSRLPMSNLFDLITAAYHLDVTGLINYGCKTVANSAKGKNAEEMRELFGIPEPWEQPSTSTATWDD,not soluble
